Several values for one entry are separate records, joined by “and”; a condition that tells them apart may be missing. Equal values may be shown once.
target: heavy chains (Iα and Iβ) of inner arm dynein I1 (Chlamydomonas reinhardtii (endogenous in axonemes)) (UniProt Q9SMH3); assay: quantitative densitometry of Coomassie blue-stained gels

Row | Substance | most likely relative stoichiometry (relative to the HCs) (relative to the HCs) | relative stoichiometry (relative to the HCs) (relative to the HCs)
1 | Chlamydomonas 8,000-M r LC (natural protein) | 4 to 5.5 | 4 to 5.5
2 | IC97 of inner arm dynein I1 (natural protein) | 0.5 to 1 | 0.95 and 0.67 and 0.56
3 | IC140 of inner arm dynein I1 (natural protein) | 0.5 to 1 | 0.71 and 0.53 and 0.63

Reference: publication PMC2132707
